B1: BRIL-fused Hat1ΔC (yeast Hat1 residues 1–320) (enzyme, UniProt Q12341 1-320, looked up)
chain: MSANDFKPETWTSSANEALRVSIVGENAVQFSPLFTYPIYGDSEKIYGYKDLIIHLAFDSVTFKPYVNVKYSAKLGDDNIVDVEKKLLSFLPKDDVIVRDEAKWVDCFAEERKTHNLSDVFEKVSEYSLNGEEFVVYKSSLVDDFARRMHRRVQIFSLLFIEAANYIDETDPSWQIYWLLNKKTKELIGFVTTYKYWHYLGAKSFDEDIDKKFRAKISQFLIFPPYQNKGHGSCLYEAIIQSWLEDKSITEITVEDPNEAFDDLRDRNDIQRLRKLGYDAVFQKHSDLSDEFLESSRKSLKLEERQFNRLVEMLLLLNNS
B2: Hat2, full-length, yeast (natural protein)
chain: MENQEKPLSVDEEYDLWKSNVPLMYDFVSETRLTWPSLTVQWLPTPVQELDGGFIKQELIIGTHTSGEEENYLKFAEINLPKEILSNEDPQEEAGEEYQSSLPAPRSNIRITAKYEHEEEITRARYMPQDPNIVATINGQGTVFLYSRSEGLQSTLKFHKDNGYALSFSTLVKGRLLSGSDDHTVALWEVGSGGDPTKPVRTWNDLHSDIINDNKWHNFNKDLFGTVSEDSLLKINDVRANNTTIDTVKCPQPFNTLAFSHHSSNLLAAAGMDSYVYLYDLRNMKEPLHHMSGHEDAVNNLEFSTHVDGVVVSSGSDNRLMMWDLKQIGAEQTPDDAEDGVPELIMVHAGHRSSVNDFDLNPQIPWLVASAEEENILQVWKCSHSLPIVGGPPKVNKDIIS

Legend:
Hat2, full-length, yeast = target: B2; assay: crystal structure
histone H4(7–102), yeast = histone H4(7–102), yeast (yeast, UniProt P02309 8-103); assay: crystal structure

Binder	binding result (Hat2, full-length, yeast)	binding result (histone H4(7–102), yeast)
B1	binds	binds
B2		binds
